The text below walks through data of PMC9728370, “Multiple Tolerances and Dye Decolorization Ability of a Novel Laccase Identified from Staphylococcus Haemolyticus” (Journal of Microbiology and Biotechnology, 2020).

Substrate in this series: CCn1c(=NN=c2sc3cc(S(=O)(=O)O)ccc3n2CC)sc2cc(S(=O)(=O)O)ccc21
Kind of series: purified protein. The series is classed as biochemical, Staphylococcus haemolyticus. The settings on record: 100 mM sodium acetate pH 4.5, 30°C, ABTS 50-1,000 μM, 5.21 mg/l enzyme.

B1: Mco (Staphylococcus haemolyticus) (protein)
chain: MYNKVFTILIIIFSIIIIASNDTFAESKNDMMNMKEDKKNTMDMTNMKHHDERKKLNSSQGKNEIIFPEVAESKKDNNGYKNYTLKAQKGKTEFYKNNFSNTLGYNGNLLGPTLKLKKGDKVKIKLINNLDENTTFHWHGLEVNGKVDGGPSQVIKPGKEKTIKFEVNQDSATLWYHPHPSPNTAKQVYNGLSGLLYIEDSKKNNYPSNYGKNDLPIIIQDKTFVSKKLNYSKTKDEDGTQGDTVLVNGIVNPKLTAKEEKIRLRLLNGSNARDLNLKLSNNQSFEYIASDGGQLKNAKKLKEINLAPSERKEIVIDLSKMKGEKVSLVDNDKTVILPISNKEKSSNKSNTPKVSKKIKLEGMNDNVTINGNKFDPNRIDFTQKLNQKEVWEIENVKDKMGGMKHPFHIHGTQFKVLSVDGEKPPKDMRGKKDVISLEPGQKAKIEVVFKNTGTYMFHCHILEHEDNGMMGQIKVTN
notes: expressed in E. coli pG-KJE8/BL21
B1: the Km (commonly the substrate concentration at which the rate is half of its maximum) stood at 139.8 µM; the kcat (as a rule, the number of substrate molecules converted per active site and unit of time at saturation) was determined as 6.87 s⁻¹.
